# Assay results: patent US20120252756A1, “Pharmaceutical Compositions and Methods for Treating, Controlling, Ameliorating, or Reversing Conditions of the Eye” (priority 2010, published 2012)
# B1: Heparin-binding EGF-like growth factor (protein, UniProt Q99075 63-148, looked up)
# Heparin-binding EGF-like …: DLQEADLDLLRVTLSSKPQALATPNKEEHGKRKKKGKGLGKKRDPCLRKYKDFCIHGECKYVKELRAPSCICHPGYHGERCHGLSL
# notes: growth factor used as positive assay control
# What was measured:
# EGFR = test: Western blot of EGFR phosphorylation in RT-HCEpiC; type: cell-based, human; conditions: 10 ng/mL for 10 minutes
# Protocol: (§1) Human corneal epithelial cells (HCEpiC) were treated with 10% PEG-3350 in serum-free media over the course of 16 hours in an attempt to understand the molecular mechanisms behind the observed positive effect on corneal re-epithelization. Cell lysates were collected and assessed for protein activation by western blot using antibodies targeting key phosphorylation sites.
# (§2) FIG. 11 is a graphical representation of peak phosphorylation time points for pAkt, pERK, and pEGFR. […] Cell lysates were collected and assessed for protein activation by western blot using antibodies targeting key phosphorylation sites. […] Ratio of phosphorylated protein to total, non-phosphorylated was quantified by densitometry.
# (§3) RT-HCEpiC cell suspensions (2.5×10^5 cells/ml) were prepared in complete medium with 10% Fetal Bovine Serum (“FBS”) and added to each well of a 6-well plate, 2.5 mL suspension per well. […] Cell lysates were assayed for protein concentration and evaluated for Akt, ERK, EGFR, and PI3K activation by Western blot.
# (§4) Culture medium was aspirated from each well and cells were washed with cold, non-sterile PBS twice. […] Cell lysates were assayed for protein concentration and analyzed by western blot. […]
# (§5) Western Blot: Analysis of Western blot band density in captured and stored digital images was done using the Quantity One software on the VersaDod MP 4000. Density of bands was quantified. […]
# PI3K = test: Western blot of PI3K phosphorylation in RT-HCEpiC; type: cell-based, human; conditions: 10 ng/mL for 10 minutes
# Protocol: as §1
# RT-HCEpiC cell suspensions (2.5×10^5 cells/ml) were prepared in complete medium with 10% Fetal Bovine Serum (“FBS”) and added to each well of a 6-well plate, 2.5 mL suspension per well. When cells reached confluence, they were serum starved overnight in basal DMEM/F12. Treatments were delivered in basal medium; treatments include control, 10 ng/mL HB-EGF (Heparin-bi-binding EGF-like growth factor) for 10 minutes; or 10% PEG-3350 for 10, 15, 20, 30 minutes, 1, 2, 4, 6, or 16 hours. Cell lysates were assayed for protein concentration and evaluated for Akt, ERK, EGFR, and PI3K activation by Western blot.
# as §4, §5
# ERK = test: Western blot of ERK phosphorylation in RT-HCEpiC; type: cell-based, human; conditions: 10 ng/mL for 10 minutes
# Protocol: as §1, §2, §3, §4, §5
# Akt = test: Western blot of Akt phosphorylation in RT-HCEpiC; type: cell-based, human; conditions: 10 ng/mL for 10 minutes
# Protocol: as §1, §2, §3, §4, §5
# [1] = system: Riken human corneal epithelial cell line (RT-HCEpiC); test: Monolayer scratch assay (corneal re-epithelization); type: cell-based; conditions: 10 ng/mL; 16 hours after wounding
# Protocol: A single horizontal scratch was made to the HCEpiC monolayer. Cells were then incubated with PEG 3350 or HPMC 2910 in basal culture medium. Wound healing was calculated as the difference in the gap width between baseline measurements and after 16-hour incubation and is expressed as percentage gap closure. Bars represent the difference in the gap width between baseline measurements and after 16-hour incubation with treatment groups (n=3); lines on bars represent the standard error of the means. Raw data were analyzed with a one-way ANOVA followed by the Dunnett's Method test. * denotes statistical significance versus vehicle control; p<0.05.
# We have developed an in vitro wound healing model using transformed human corneal epithelial cells insulted with a scratch to the monolayer and monitored for growth into the resulting cell-free gap. […]
# Cells were examined and photographed after scratch and after 16 hours incubation with treatment to monitor closure of the cell-free gap using a light microscope. The percent closure was determined using the following equation. […]
# Comparisons were made between treatment groups and the vehicle controls to determine the effect of the treatment on re-epithelization. […] All data was analyzed utilizing the statistical analysis software JMP (SAS Institute, Cary, N.C.).
molecule,measurement,setting,value
B1,phosphorylation of EGFR,EGFR,substantially increased
same,pPI3K,PI3K,no effect
same,phosphorylation of ERK,ERK,substantially increased
same,phosphorylation of Akt,Akt,substantially increased
same,corneal re-epithelization (percent gap closure) versus vehicle control,[1],significantly increased
